Source: PMC7688965

What was measured:
Test in all cases: IP-MS (HA-IP, label-free LC/MS-MS)
AHSA1 = conditions: HA-tagged Hop exogenously overexpressed in KO1 cells; n = 2; read off a plot
CDC37 = conditions: HA-tagged Hop exogenously overexpressed in KO1 cells; n = 2; read off a plot
DNAJA1 = conditions: HA-tagged Hop exogenously overexpressed in KO1 cells; n = 2; read off a plot
DNAJA2 = conditions: HA-tagged Hop exogenously overexpressed in KO1 cells; n = 2; read off a plot
HSPA4L = conditions: HA-tagged Hop exogenously overexpressed in KO1 cells; n = 2; read off a plot
HSPA4 = conditions: HA-tagged Hop exogenously overexpressed in KO1 cells; n = 2; read off a plot
HSPA5 = conditions: HA-tagged Hop exogenously overexpressed in KO1 cells; n = 2; read off a plot
HSPA6;HSPA7 = conditions: HA-tagged Hop exogenously overexpressed in KO1 cells; n = 2; read off a plot
HSPH1 = conditions: HA-tagged Hop exogenously overexpressed in KO1 cells; n = 2; read off a plot
HUWE1 = conditions: HA-tagged Hop exogenously overexpressed in KO1 cells; n = 2; right graph; read off a plot
PSMC1 = conditions: HA-tagged Hop exogenously overexpressed in KO1 cells; n = 2; left graph; read off a plot
PSMC2 = conditions: HA-tagged Hop exogenously overexpressed in KO1 cells; n = 2; left graph; read off a plot
PSMC3 = conditions: HA-tagged Hop exogenously overexpressed in KO1 cells; n = 2; left graph; read off a plot
PSMC4 = conditions: HA-tagged Hop exogenously overexpressed in KO1 cells; n = 2; left graph; read off a plot
PSMC5 = conditions: HA-tagged Hop exogenously overexpressed in KO1 cells; n = 2; left graph; read off a plot
PSMD11 = conditions: HA-tagged Hop exogenously overexpressed in KO1 cells; n = 2; left graph; read off a plot
PSMD12 = conditions: HA-tagged Hop exogenously overexpressed in KO1 cells; n = 2; left graph; read off a plot
PSMD13 = conditions: HA-tagged Hop exogenously overexpressed in KO1 cells; n = 2; left graph; read off a plot
PSMD3 = conditions: HA-tagged Hop exogenously overexpressed in KO1 cells; n = 2; left graph; read off a plot
UBA1 = conditions: HA-tagged Hop exogenously overexpressed in KO1 cells; n = 2; right graph; read off a plot
UBE2N;UBE2NL = conditions: HA-tagged Hop exogenously overexpressed in KO1 cells; n = 2; right graph; read off a plot
USP10 = conditions: HA-tagged Hop exogenously overexpressed in KO1 cells; n = 2; right graph; read off a plot
USP5 = conditions: HA-tagged Hop exogenously overexpressed in KO1 cells; n = 2; right graph; read off a plot
USP7 = conditions: HA-tagged Hop exogenously overexpressed in KO1 cells; n = 2; right graph; read off a plot

other: normalized enrichment (log2) WT Hop / K8A,K229A Hop (AHSA1): 3 log2 | other: normalized enrichment (log2) WT Hop / K8A,K229A Hop (CDC37): 3.2 log2 | other: normalized enrichment (log2) WT Hop / K8A,K229A Hop (DNAJA1): 3.9 log2 | other: normalized enrichment (log2) WT Hop / K8A,K229A Hop (DNAJA2): 4.3 log2 | other: normalized enrichment (log2) WT Hop / K8A,K229A Hop (HSPA4L): 3 log2 | other: normalized enrichment (log2) WT Hop / K8A,K229A Hop (HSPA4): 1.7 log2 | other: normalized enrichment (log2) WT Hop / K8A,K229A Hop (HSPA5): 2.5 log2 | other: normalized enrichment (log2) WT Hop / K8A,K229A Hop (HSPA6;HSPA7): 4.5 log2 | other: normalized enrichment (log2) WT Hop / K8A,K229A Hop (HSPH1): 4 log2 | other: normalized enrichment (log2) WT Hop / K8A,K229A Hop (HUWE1): 2.7 log2 | other: normalized enrichment (log2) WT Hop / K8A,K229A Hop (PSMC1): 0.95 log2 | other: normalized enrichment (log2) WT Hop / K8A,K229A Hop (PSMC2): 0.65 log2 | other: normalized enrichment (log2) WT Hop / K8A,K229A Hop (PSMC3): 1 log2 | other: normalized enrichment (log2) WT Hop / K8A,K229A Hop (PSMC4): 0.25 log2 | other: normalized enrichment (log2) WT Hop / K8A,K229A Hop (PSMC5): 1.3 log2 | other: normalized enrichment (log2) WT Hop / K8A,K229A Hop (PSMD11): 1.7 log2 | other: normalized enrichment (log2) WT Hop / K8A,K229A Hop (PSMD12): 3.1 log2 | other: normalized enrichment (log2) WT Hop / K8A,K229A Hop (PSMD13): 2.1 log2 | other: normalized enrichment (log2) WT Hop / K8A,K229A Hop (PSMD3): 1.5 log2 | other: normalized enrichment (log2) WT Hop / K8A,K229A Hop (UBA1): 0.85 log2 | other: normalized enrichment (log2) WT Hop / K8A,K229A Hop (UBE2N;UBE2NL): 0.8 log2 | other: normalized enrichment (log2) WT Hop / K8A,K229A Hop (USP10): 2.5 log2 | other: normalized enrichment (log2) WT Hop / K8A,K229A Hop (USP5): 2.3 log2 | other: normalized enrichment (log2) WT Hop / K8A,K229A Hop (USP7): 2.9 log2
Substance: HA-tagged WT Hop (from UniProt P31948) K8A; K229A
